Results on four molecules are retold here after patent US20210268096A1 (TRELLIS BIOSCIENCE, published 2021).

The target of assay [1] is human chemokine receptor CX3CR1 (human) (UniProt P49238). As to the kind of experiment: cell-based or functional assay.
For assay [2], the target named is T1, recombinant RSV G[161-197] (respiratory syncytial virus (RSV), UniProt P03423 161-197).
T1 chain: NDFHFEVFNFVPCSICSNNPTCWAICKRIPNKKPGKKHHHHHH
As to the kind of experiment: cell-based or functional assay.

Sequence of human chemokine receptor CX3CR1 (human) (P49238 whole entry): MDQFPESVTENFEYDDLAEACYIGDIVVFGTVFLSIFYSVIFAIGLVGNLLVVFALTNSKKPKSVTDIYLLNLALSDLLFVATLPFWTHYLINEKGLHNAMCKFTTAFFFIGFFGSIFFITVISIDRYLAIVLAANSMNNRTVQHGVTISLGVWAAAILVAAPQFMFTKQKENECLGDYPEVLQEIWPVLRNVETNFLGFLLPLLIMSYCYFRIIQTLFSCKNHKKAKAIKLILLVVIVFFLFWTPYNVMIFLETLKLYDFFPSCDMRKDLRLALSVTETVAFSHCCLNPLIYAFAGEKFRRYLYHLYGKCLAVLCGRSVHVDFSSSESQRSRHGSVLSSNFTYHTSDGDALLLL

The molecule “RSV G ectodomain (G[ecto]) (from UniProt P03423 64-298)” registered a chemotactic index (fold-increase in THP-1 cell migration vs serum-free media) (fold (chemotactic index)) in assay [1] of 3.9.
Molecule “recombinant RSV G[161-197] (from UniProt P03423 161-197) (peptide)” gave a chemotactic index (fold-increase in THP-1 cell migration vs serum-free media) (fold (chemotactic index)) in assay [1] of 4.2.

B1: mAb 2D10 (antibody, V domains shown)
VH: QVQLVQSGPEVKKPGASVRLSCKASGYVFTNYGVSWVRQAPGQGLEWMGWSSPYNGNTYYAQKLKARVTMTTDTSTNTAYMELRSLRSDDTAVYYCGRDMLGVVQAVAGPFDSWGQGTLVTVSS
VL: DTPMTQSPSSVSASVGDRVTISCRASQGISNSLAWYQQKLGKAPQLLIYAASSLQSGVPSRFSGSGSGTDFTLTISSLQPEDFATYYCQQTNTFPFTFGPGTKVEVRR
Regarding B1, the “chemotactic index of 5 nM RSV G[161-197] pre-incubated with 25 nM mAb” value in assay [2] was 1 fold (chemotactic index).

B2: mAb 3D3 (antibody, V domains shown)
VH: EEQLVESGGGLVQPGRSLRLSCVGSGLRFEEHAMHWVRQAPGRGLEWVSGISWNSGSVGYADSVKGRFTTSRDNAKDILFLEMNTLRSEDTALYFCAIMVATTKNDFHYYKDVWGKGTTVTVSS
VL: QIVLTQSPATLSLSPGERATLSCKASQSVSNHLAWYQQKPGQAPRLLIYETSNRATGIPPRFSGSGSGTDFTLTISSLEPEDFAVYYCQQRNNWYTFGQGTKLEIK
On to B2, for which the “chemotactic index of 5 nM RSV G[161-197] pre-incubated with 25 nM mAb” value in assay [2] is 1.5 fold (chemotactic index).
